US20140178293A1, “METHODS FOR IMAGING BONE PRECURSOR CELLS USING DUAL-LABELED IMAGING AGENTS TO DETECT MMP-9 POSITIVE CELLS” (BAYLOR COLLEGE OF MEDICINE, priority 2011, published 2014)
Like-named read-outs stand apart in the source and are kept apart here. Blank lines part the entries; values can stand above or below the molecule they belong to. Positions of bridges follow the written chain, without caps; N, C: chain ends. No end group written: not given here. *: point of attachment. DOTA = O=C(O)CN1CCN(CC(=O)O)CCN(CC(=O)*)CCN(CC(=O)O)CC1

How the values were obtained:
[1] = characterization of fluorescent properties; type: physicochemical
Description: Fluorescence intensity of the fluorophores was determined using the Fluorolog Tau-3 Spectrofluorometer (Horiba Jobin Yvon, Edison, N.J.) with excitation from a xenon arc lamp and absorbance was recorded using the DU-800 Spectrophotometer (Beckman Coulter, Brea Calif.). Fluorescence excitation and emission spectra were obtained at wavelengths of 785 and 830 nm respectively, with an integration time of 0.3 seconds for 1 μM solutions of IRDye 800CW, M2 and ^68Ga-M2 (n=4). Fluorescence measurements for IRDye 800CW and M2 were performed in aqueous solution under ambient conditions, whereas ^68Ga-M2 was prepared as previously described in NaOAc (pH 4) to provide an accurate representation of the ^68Ga-labeling scheme. Extinction coefficients were determined from the slope of absorbance at 785 nm as a function of the concentration of serial dilutions of each agent. Fluorescence quantum yield was determined by the comparative method of Williams et al. (Williams et al., 1983) using the quantum yield of ICGO (Φ=0.016) at 785/830 nm as a standard.

in vitro = in vitro ADME; conditions: mouse, serum
Description: (§1) After radiolabeling, 150 μl of ^64Cu-M2 was diluted in equal volumes of PBS or DTPA solution and kept at room temperature. Aliquots were taken at 0, 2, 6 and 24 hrs post-incubation and analyzed by radio-HPLC. To evaluate serum stability, 150 μl of ^64Cu-M2 was added to 150 μl of 50% mouse serum and incubated at 37° C. An 80 μl aliquot was taken at each of the above-mentioned time points and added to 160 μl ice-cold acetonitrile. The samples were centrifuged at 14,000 g for 5 min and the supernatant was collected and analyzed by radio-HPLC.

MMP-9 [2] = target: T1, MMP-9 (Mus musculus, UniProt P41245); experiment: in vivo NIR fluorescence imaging of ^64Cu-M2 in murine model of BMP-2 induced HO; set-up: injected intramuscularly into each hind limb quadriceps muscle of nonobese diabetic/severely compromised immunodeficient (NOD/SCID) mice; from tissue; host or cells: hind limb muscle of living NOD/SCID mice injected with AdBMP2- or Adempty-transduced human fibroblasts
Description: NIR fluorescence images were acquired using custom-built fluorescence imaging systems (Houston et al., 2005) 18 hours after intravenous administration of ^64Cu-M2. Briefly, a field of view was illuminated with 785 nm of light from a laser diode, outfitted with a convex lens and diffuser to create a uniform excitation field. The fluorescence was collected through holographic and interference filters placed before a Nikon camera lens. The images were finally captured by an electron-multiplying charge-coupled device camera (PhotonMax 512; Princeton Instruments, Princeton, N.J.) with 200 to 400 milliseconds of integration time. For acquisition of white-light images, the optical filters were removed, and a low-power lamp illuminated the subject. Image acquisition was accomplished by V++ software (Aukland, New Zealand).

[3] = in vitro stability of ^64Cu-M2 in PBS or 500-fold excess DTPA (radio-HPLC); type: physicochemical; conditions: room temperature, normalized to 100% at t=0
Description: as §1

MMP-9 [4] = target: T1, MMP-9
[5] = aqueous solution, 785/830 nm, used as standard; cited from earlier work
[6] = target: MMP-9 (AnaSpec, Fremont, Calif.) (UniProt P14780 107-707, limits assumed); experiment: cell-based or functional assay
[7] = target: MMP-9 in mouse hind limb tissue (BMP-2 induced HO model, NOD/SCID mice) (mouse, UniProt P41245 108-730, limits assumed); experiment: cell-based or functional assay
[8] = 1 μM solutions, IRDye 800CW and M2 aqueous, ^68Ga-M2 in NaOAc pH 4
[9] = 4 days post-implantation with 200x M1 as blocking (24 hours prior)

T1 sequence (P41245 108-730): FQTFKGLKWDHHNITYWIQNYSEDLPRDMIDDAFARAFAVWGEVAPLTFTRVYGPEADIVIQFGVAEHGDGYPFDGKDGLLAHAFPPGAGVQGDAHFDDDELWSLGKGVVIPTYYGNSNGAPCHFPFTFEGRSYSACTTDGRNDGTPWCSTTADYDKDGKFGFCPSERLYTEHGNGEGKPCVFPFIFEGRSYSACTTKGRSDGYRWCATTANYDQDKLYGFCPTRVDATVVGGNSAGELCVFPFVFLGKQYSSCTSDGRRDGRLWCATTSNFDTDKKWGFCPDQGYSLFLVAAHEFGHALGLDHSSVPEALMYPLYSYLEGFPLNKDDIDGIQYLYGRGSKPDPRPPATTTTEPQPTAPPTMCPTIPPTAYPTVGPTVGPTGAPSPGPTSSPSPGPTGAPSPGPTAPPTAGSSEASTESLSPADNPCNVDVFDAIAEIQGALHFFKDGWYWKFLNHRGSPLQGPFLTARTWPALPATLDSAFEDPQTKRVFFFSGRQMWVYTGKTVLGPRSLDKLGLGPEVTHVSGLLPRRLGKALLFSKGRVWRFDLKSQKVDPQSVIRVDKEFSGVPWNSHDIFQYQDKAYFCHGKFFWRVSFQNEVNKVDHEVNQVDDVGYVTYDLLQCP
Sequence of MMP-9 in mouse hind limb tissue (BMP-2 induced HO model, NOD/SCID mice) (P41245 108-730 limits assumed): as the sequence (P41245 108-730) above
Sequence of MMP-9 (AnaSpec, Fremont, Calif.) (P14780 107-707 limits assumed): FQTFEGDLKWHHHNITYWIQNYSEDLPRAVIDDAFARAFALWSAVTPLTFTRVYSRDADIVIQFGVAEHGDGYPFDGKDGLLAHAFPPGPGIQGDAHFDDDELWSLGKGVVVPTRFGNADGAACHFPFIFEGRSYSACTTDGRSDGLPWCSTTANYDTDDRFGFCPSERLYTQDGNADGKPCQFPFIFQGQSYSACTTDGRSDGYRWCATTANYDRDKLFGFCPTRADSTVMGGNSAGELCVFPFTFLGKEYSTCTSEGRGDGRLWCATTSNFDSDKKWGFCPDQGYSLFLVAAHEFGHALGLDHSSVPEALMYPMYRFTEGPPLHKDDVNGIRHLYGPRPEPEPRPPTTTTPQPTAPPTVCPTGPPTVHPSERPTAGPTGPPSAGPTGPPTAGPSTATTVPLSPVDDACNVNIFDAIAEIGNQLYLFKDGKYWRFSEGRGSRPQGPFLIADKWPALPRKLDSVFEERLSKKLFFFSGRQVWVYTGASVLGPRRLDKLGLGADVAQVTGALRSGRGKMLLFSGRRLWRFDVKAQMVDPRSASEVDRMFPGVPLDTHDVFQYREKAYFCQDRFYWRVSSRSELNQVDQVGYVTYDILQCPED

Emission maximum [1, 8]: 830 nm
Excitation wavelength [1, 8]: 785 nm
Quantum yield ([1]; 785/830 nm, relative to ICG (Φ=0.016)): 0.034
Extinction coefficient ([1]; absorbance at 785 nm, serial dilutions, mean ± SD (n=4)): 181,458 ± 2,189 M^−1cm^−1
Molecule: CC1(C)C(=CC=C2CCCC(C=CC3=[N+](CCCCCC(=O)[O-])c4ccc(S(=O)(=O)[O-])cc4C3(C)C)=C2Oc2ccc(S(=O)(=O)[O-])cc2)N(CCCCS(=O)(=O)[O-])c2ccc(S(=O)(=O)[O-])cc21.[Na+].[Na+].[Na+].[Na+] [IRDye 800CW, reference compound]

bone formation by μCT after blocking dose (MMP-9 [4]; 200-fold excess of M1, μCT after 7 days): still exhibited bone formation
Molecule: (lactam 2,10) DOTA-KKAHWGFTLD ({DOTA}-KKAHWGFTLD; lactam 2-10) [M1]

Further lines, the molecule ahead of its results:

Molecule: CC(C)C[C@@H]1NC(=O)[C@H]([C@@H](C)O)NC(=O)[C@H](Cc2ccccc2)NC(=O)CNC(=O)[C@H](Cc2c[nH]c3ccccc23)NC(=O)[C@H](Cc2c[nH]cn2)NC(=O)[C@H](C)NC(=O)[C@@H](NC(=O)[C@H](CCCCNC(=O)CCCCC[N+]2=C(C=CC3=C(Oc4ccc(S(=O)(=O)O)cc4)C(=CC=C4N(CCCCS(=O)(=O)O)c5ccc(S(=O)(=O)O)cc5C4(C)C)CCC3)C(C)(C)c3cc(S(=O)(=O)[O-])ccc32)NC(=O)CN2CCN(CC(=O)O)CCN(CC(=O)O)CCN(CC(=O)O)CC2)CCCCNC(=O)C[C@@H](C(=O)O)NC1=O (single isomer, unassigned) [^64Cu-M2, metal not drawn]
remaining at 2 h (in vitro): 99.6 ± 0.6%
remaining at 6 h (in vitro): 94.8 ± 0.6%
remaining at 24 h (in vitro): 53.7 ± 3.7%
Target/background ratio (NIR) (MMP-9 [2]; 2 days post-implantation, 18 hours after i.v. administration): 1.13 ± 0.03
Target/background ratio (NIR) (MMP-9 [2]; [9]): 1.13 ± 0.18
Target/background ratio (NIR) (MMP-9 [2]; 4 days post-implantation, 18 hours after i.v. administration): 1.24 ± 0.05
Target/background ratio (NIR) (MMP-9 [2]; 6 days post-implantation, 18 hours after i.v. administration): 1.10 ± 0.03
percentage of intact component ([3]; DTPA, 2 hrs): 97.8 ± 1.3%
percentage of intact component ([3]; DTPA, 6 hrs): 97.7 ± 0.6%
percentage of intact component ([3]; DTPA, 24 hrs): 96.4±1.1%
percentage of intact component ([3]; PBS, 24 hrs): 98.9 ± 1.5%
Target/background ratio (PET/CT) (MMP-9 [4]; 2 days post-implantation, 200 μCi, 6 nmol i.v.): 3.29±0.9
Target/background ratio (PET/CT) (MMP-9 [4]; [9]): 1.44±0.66
Target/background ratio (PET/CT) (MMP-9 [4]; 4 days post-implantation, 200 μCi, 6 nmol i.v.): 4.02±1.39
Target/background ratio (PET/CT) (MMP-9 [4]; 6 days post-implantation, 200 μCi, 6 nmol i.v.): 3.41±0.51
% injected dose/g (PET/CT) (MMP-9 [4]; NOD/SCID, mouse, in vivo, iv, 6 nmol): 0.61 ± 0.04 % injected dose/g
whole-body distribution (MMP-9 [4]; mouse, in vivo, iv): slow clearance from circulation along with uptake in the liver and kidneys

Molecule: CC1(C)C(/C=C/C=C/C=C/C=C2\N(CCCCS(=O)(=O)O)c3ccc4ccccc4c3C2(C)C)=[N+](CCCCS(=O)(=O)[O-])c2ccc3ccccc3c21 [ICG, indocyanine green]
quantum yield of standard [5]: 0.016

Molecule: {DOTA}-KKAHWGFTLD (lactam 2-10; also: IRDye 800CW conjugated through an amine, site not given here) [dual-conjugate M2 (M1 conjugated with IRDye 800CW)]
inhibition of MMP-9 by gelatin zymography [6]: 10 fold decrease compared to M1

B1: ^64Cu-M2 (peptide)
peptide: {DOTA}-KKAHWGFTLD
modifications: lactam 2-10; also: DOTA chelating 64Cu, IRDye 800CW conjugated through a reactive amine group
Target/background ratio (NIR), day 2 post-implantation [7]: 1.13 ratio
Target/background ratio (NIR), day 4 post-implantation [7]: 1.24 ratio
Target/background ratio (NIR), day 4 with 200x M1 as blocking [7]: 1.13 ratio
Target/background ratio (NIR), day 6 post-implantation [7]: 1.1 ratio
Target/background ratio (PET/CT), day 2 post-implantation [7]: 3.29 ratio
Target/background ratio (PET/CT), day 4 post-implantation [7]: 4.02 ratio
Target/background ratio (PET/CT), day 4 with 200x M1 as blocking [7]: 1.44 ratio
Target/background ratio (PET/CT), day 6 post-implantation [7]: 3.41 ratio
